Assay results taken from publication PMC7911190, “One Step Histological Detection and Staining of the PTEN Tumor Suppressor Protein by a Single Strand DNA”.

B1: Dual aptazyme PTENz7-70 (structured_DNA)
DNA: GTGGGTAGGGCGGGTTGGCGGTCATACCGCGCCTATCGAACTCGCCACTCGCGTGCAGCTCTGTGTAGGT
B2: PTENz7-87-biotin (structured_DNA)
DNA: CGGAATTCCGAGCGTGGGCGTGGTCATACCGCGCCTATCGAACTCGCCACTCGCGTGCAGCTCTGTGTAGGTACGCCCACGCTCGAG

Legend:
[1] = biological target: T1, PTEN (endogenous, human tissue sections) (human, UniProt P60484 1-403); assay: histochemistry (PS2.M peroxidase, DAB); hemin, K+; endometrium and colon; same scoring as MAb 6H2 in 60 samples; Fixed tissue sections; 5 uM aptamer in TKT (25 mM Tris-HCl pH 8, 20 mM KCl, 200 mM NaCl, 0.05% Triton X-100, 0.1% DMSO), 100 uM hemin for DNAzyme constructs, BSA; 3 h at room temperature or overnight at 4 C (25 C overnight also stated); settings: protein: native; 5' PS2.M G-quadruplex; stem linker removed
T1 sequence (P60484 whole entry): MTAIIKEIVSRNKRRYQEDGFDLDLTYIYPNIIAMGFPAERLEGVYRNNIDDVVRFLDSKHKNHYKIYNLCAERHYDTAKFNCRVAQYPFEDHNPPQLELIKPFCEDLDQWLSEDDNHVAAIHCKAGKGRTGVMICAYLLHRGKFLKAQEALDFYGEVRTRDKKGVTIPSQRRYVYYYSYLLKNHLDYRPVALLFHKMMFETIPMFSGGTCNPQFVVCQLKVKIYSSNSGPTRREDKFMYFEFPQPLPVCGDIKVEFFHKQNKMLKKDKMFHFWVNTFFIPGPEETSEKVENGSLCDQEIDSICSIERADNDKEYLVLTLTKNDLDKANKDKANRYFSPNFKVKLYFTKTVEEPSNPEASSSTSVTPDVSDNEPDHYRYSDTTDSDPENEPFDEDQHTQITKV

[2] = biological target: T1, PTEN (endogenous, human tissue sections); assay: histochemistry (avidin-biotin peroxidase); normal endometrium; TKT buffer; Fixed tissue sections; 5 uM aptamer in TKT (25 mM Tris-HCl pH 8, 20 mM KCl, 200 mM NaCl, 0.05% Triton X-100, 0.1% DMSO), 100 uM hemin for DNAzyme constructs, BSA; 3 h at room temperature or overnight at 4 C (25 C overnight also stated); settings: protein: native; label: 5' biotin; stem-loop; 13 nt reverse-complementary primer regions form the stem

Binder | binding result [1] | binding result [2]
B1 | binds | 
B2 |  | binds
